Measurements published in article PMC3865722 (2014).

How the values were obtained:
Experiment in all cases: competitive inhibition of Tra2β
[1] = target: T1, Tra2β(ΔN) 114-288 (Homo sapiens, UniProt P62995)
T1 chain: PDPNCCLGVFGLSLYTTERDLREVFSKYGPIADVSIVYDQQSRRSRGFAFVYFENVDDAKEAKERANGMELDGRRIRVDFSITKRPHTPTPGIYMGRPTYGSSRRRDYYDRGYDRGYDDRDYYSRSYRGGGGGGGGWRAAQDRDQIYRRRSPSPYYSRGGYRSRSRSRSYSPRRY

[2] = target: T2, Tra2β(ΔN/RS2) RRM and N-terminal half of C-terminal RS domain (Homo sapiens, UniProt P62995)
T2 chain: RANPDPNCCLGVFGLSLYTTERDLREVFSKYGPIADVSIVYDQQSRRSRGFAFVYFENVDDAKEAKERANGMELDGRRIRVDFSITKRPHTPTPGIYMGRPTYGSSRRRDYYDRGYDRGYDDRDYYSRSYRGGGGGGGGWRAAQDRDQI

[3] = target: T3, Tra2β(ΔN/RRM) C-terminal RS domain (Homo sapiens, UniProt P62995)
T3 chain: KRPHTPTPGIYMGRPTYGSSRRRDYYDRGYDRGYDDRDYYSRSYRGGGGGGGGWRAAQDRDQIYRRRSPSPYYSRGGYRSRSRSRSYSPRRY

B1: SRPK1 (protein)
chain: MERKVLALQARKKRTKAKKDKAQRKSETQHRGSAPHSESDLPEQEEEILGSDDDEQEDPNDYCKGGYHLVKIGDLFNGRYHVIRKLGWGHFSTVWLSWDIQGKKFVAMKVVKSAEHYTETALDEIRLLKSVRNSDPNDPNREMVVQLLDDFKISGVNGTHICMVFEVLGHHLLKWIIKSNYQGLPLPCVKKIIQQVLQGLDYLHTKCRIIHTDIKPENILLSVNEQYIRRLAAEATEWQRSGAPPPSGSAVSTAPQPKPADKMSKNKKKKLKKKQKRQAELLEKRMQEIEEMEKESGPGQKRPNKQEESESPVERPLKENPPNKMTQEKLEESSTIGQDQTLMERDTEGGAAEINCNGVIEVINYTQNSNNETLRHKEDLHNANDCDVQNLNQESSFLSSQNGDSSTSQETDSCTPITSEVSDTMVCQSSSTVGQSFSEQHISQLQESIRAEIPCEDEQEQEHNGPLDNKGKSTAGNFLVNPLEPKNAEKLKVKIADLGNACWVHKHFTEDIQTRQYRSLEVLIGSGYNTPADIWSTACMAFELATGDYLFEPHSGEEYTRDEDHIALIIELLGKVPRKLIVAGKYSKEFFTKKGDLKHITKLKPWGLFEVLVEKYEWSQEEAAGFTDFLLPMLELIPEKRATAAECLRHPWLNS
Binder B1 has a Ki [1] of 11 nM, a Ki [2] of 180 nM and a Ki [3] of 45 nM.
